Experimental data published in patent US20170296650A1 (Novartis, published 2017).

Columns and labels:
[1] = biological target: T1, hCMV UL130 + UL131A (HEK293T co-transfectant) (hCMV, UniProt P16772 1-214); assay: cell-based or functional assay
[2] = biological target: T1, hCMV UL130 + UL131A (HEK293T …); assay: cell-based or functional assay; remark: listed apart in the source
[3] = biological target: T2, hCMV gH + gL + UL128 + UL130 + UL131A (5-member complex; HEK293T co-transfectant) (hCMV, UniProt P12824 24-743; P16832 31-278; P16837 1-171; P16772 1-214); assay: cell competition; competitor 2F4-biotin
T2 construct: whole, on cells; in the functional rows it stands for the complex on virions or transduced cells of the strain or isolate named in the readout; also called gH/gL/UL128-131A complex; pentameric complex

[4] = biological target: T2, hCMV gH + gL + UL128 + UL130 + UL131A …; assay: cell competition; competitor 6G4-biotin
[5] = biological target: T2, hCMV gH + gL + UL128 + UL130 + UL131A …; assay: cell competition; competitor 15D8-biotin
[6] = biological target: T2, hCMV gH + gL + UL128 + UL130 + UL131A …; assay: cell competition; competitor 1F11-biotin
[7] = biological target: T2, hCMV gH + gL + UL128 + UL130 + UL131A …; assay: cell competition; competitor 4I22-biotin
[8] = biological target: T2, hCMV gH + gL + UL128 + UL130 + UL131A …; assay: cell competition; competitor 2C12-biotin
[9] = biological target: T2, hCMV gH + gL + UL128 + UL130 + UL131A …; assay: cell competition; competitor 8I21-biotin
[10] = biological target: T3, hCMV gH (HEK293T transfectant) (hCMV, UniProt P12824 24-743); assay: cell-based or functional assay
[11] = biological target: T3, hCMV gH (HEK293T transfectant); assay: cell-based or functional assay; remark: listed apart in the source
[12] = biological target: T2, hCMV gH + gL + UL128 + UL130 + UL131A …; assay: cell competition; competitor 5A2-biotin
[13] = biological target: T2, hCMV gH + gL + UL128 + UL130 + UL131A …; assay: cell competition; competitor 10F7-biotin
[14] = biological target: T2, hCMV gH + gL + UL128 + UL130 + UL131A …; assay: cell competition; competitor 4N10-biotin
[15] = biological target: T4, hCMV UL128 + UL130 + UL131A (HEK293T co-transfectant) (hCMV, UniProt P16837 1-171; P16772 1-214); assay: cell-based or functional assay
T4 sequence (P16837 whole entry, chain 1 of 2): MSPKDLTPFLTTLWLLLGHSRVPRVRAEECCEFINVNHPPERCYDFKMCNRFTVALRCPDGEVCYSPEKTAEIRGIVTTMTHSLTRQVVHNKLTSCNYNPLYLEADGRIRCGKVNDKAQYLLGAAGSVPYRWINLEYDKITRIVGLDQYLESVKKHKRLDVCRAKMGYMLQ
T4 sequence (P16772 whole entry, chain 2 of 2): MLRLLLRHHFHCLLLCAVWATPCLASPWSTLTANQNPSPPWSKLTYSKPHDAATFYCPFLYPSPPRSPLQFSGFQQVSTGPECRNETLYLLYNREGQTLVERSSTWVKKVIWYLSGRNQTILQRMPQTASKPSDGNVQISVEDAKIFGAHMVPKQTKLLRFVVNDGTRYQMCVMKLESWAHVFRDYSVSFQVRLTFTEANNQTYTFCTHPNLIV

[16] = biological target: T4, hCMV UL128 + UL130 + UL131A (HEK293T …); assay: cell-based or functional assay; remark: listed apart in the source
[17] = biological target: T2, hCMV gH + gL + UL128 + UL130 + UL131A …; assay: cell competition; competitor 9I6-biotin
[18] = biological target: T2, hCMV gH + gL + UL128 + UL130 + UL131A …; assay: cell competition; competitor 8C15-biotin
[19] = biological target: T2, hCMV gH + gL + UL128 + UL130 + UL131A …; assay: cell competition; competitor 8J16-biotin

T1 sequence (P16772 whole entry): as the sequence (P16772 whole entry, chain 2 of 2) above

B1: 10P3 (antibody, V domains shown)
VH: EVQLVESGGGLVRPGGSLRLSCAASGFTFHNYRMNWVRQAPGKGLEWVANIKQDGSEKSYVDSVRGRFTTSRDNSKNSLYLQINSLRAEDTAVYYCARGEGYTYGVVYSYSAMDVWGQGTTVIVSS
VL: SYELTQPPSVSVSPGQTARITCSGNVLPNQYASWYQQKPGQAPVLVIYKDTERPSGIPGRFSGSSSGTTVTLTISGVQAEDEADYYCQSADSSGADYVFGTGTKVTVL
notes: human IgG
With B1 the “50% neutralization VR1814, ARPE” value [1] was < 0.001 µg/mL, the “50% neutralization VR1814, MRC-9” value [1] was > 2 µg/mL and the “90% neutralization VR1814, ARPE” value [2] was 0.0025 µg/mL. For the same binder, the “90% neutralization VR1814, MRC-9” value [2] was > 10 µg/mL, the “Inhibition of binding (%)” value [3] was 0% and the “Inhibition of binding (%)” value [4] was 0%. The “Inhibition of binding (%)” value [5] was 0%, the “Inhibition of binding (%)” value [6] was 0% and the “Inhibition of binding (%)” value [7] was 0%. For the same binder, the “Inhibition of binding (%)” value [8] was 0% and the “Inhibition of binding (%)” value [9] was 0%.

B2: 11B12 (antibody, V domains shown)
VH: QMQLVQSGPQVKKPGTSVKVSCKASGFTFTSSAMQWVRQARGQRPEWIGWIVLGSGNTNYAQKFQERVTLTRDMSTATAYMELSSLRSEDTAVYYCAADRGRGGYNVYTYWGQGTLVAVSS
VL: EIVMTQSPGTLSLSPGERATLSCRASQTISNTYVAWYQQKPGQAPRLLIYGASSRATGIPDRFSGSGSGTDFTLTIRRLEPEDFAVYYCQQNGQSPWTFGQGTNVEIK
With B2 the “50% neutralization VR1814, ARPE” value [10] was ≤ 2 µg/mL, the “50% neutralization VR1814, MRC-9” value [10] was ≤ 2 µg/mL and the “90% neutralization VR1814, ARPE” value [11] was 1.2 µg/mL. For the same binder, the “90% neutralization VR1814, MRC-9” value [11] was 3.5 µg/mL.

B3: 10F7 (antibody, V domains shown)
VH: EVQLVESGGGLVQPGRSLRLSCTASGFTFGDYAMSWFRQAPGKGLEWVGFIRSKAYGGTTEYAASVKGRFTISRDDSKSIAYLQMNSLKTEDTAVYYCTRASSLLWLLNPQPNFDYWGQGTLVTVSS
VL: SYVLTQPPSVSVAPGQTARITCGGNNIGSNNVHWYQQKPGQAPVLVVYDDSDRPSGIPERFSGSNSGNTATLTISRVEAGDEADYYCQVWDSSSDHPVFGGGTKLTVL
notes: human IgG; also called 10F7-biotin
B3 was tested, and the “50% neutralization VR1814, ARPE” value [1] was < 0.01 µg/mL, the “50% neutralization VR1814, MRC-9” value [1] was ≤ 2 µg/mL and the “90% neutralization VR1814, ARPE” value [2] was 0.002 µg/mL. For the same binder, the “90% neutralization VR1814, MRC-9” value [2] was > 10 µg/mL, the “Inhibition of binding (%)” value [3] was 100% and the “Inhibition of binding (%)” value [12] was 0%. For the same binder, the “Inhibition of binding (%)” value [4] was 0%, the “Inhibition of binding (%)” value [13] was 100% and the “Inhibition of binding (%)” value [5] was 0%. The “Inhibition of binding (%)” value [6] was 100%, the “Inhibition of binding (%)” value [7] was 100% and the “Inhibition of binding (%)” value [14] was 0%. The “Inhibition of binding (%)” value [8] was 0% and the “Inhibition of binding (%)” value [9] was 0%.

B4: 3G16 (antibody, V domains shown)
VH: QSALTQPASVSGSPGESITISCTGTISDVGAYNSVSWYQQHSGTAPELIIYDVTNRPAGVSSRFSGSKSGNTASLTISWLQSEDEAEYYCSSYTTSDTYVFGSGTQVTVL
V domain: RAQLVQSAAEMKNPGASVKVSCEASGYTFTGYYVHWMRQAPGQGLEWMGWINPMTGATKSPQKFQGRVTMTRDTSTTATHIELTRLRSDDSAVFFCARGGPTSTRITGKRHFDLWGRGTLITVAS
notes: human IgG; also called 3G16-biotin
In the case of B4, the “50% neutralization VR1814, ARPE” value [10] is reported as ≤ 2 µg/mL, the “50% neutralization VR1814, MRC-9” value [10] is reported as ≤ 2 µg/mL and the “90% neutralization VR1814, ARPE” value [11] is reported as 0.3 µg/mL. For the same binder, the “90% neutralization VR1814, MRC-9” value [11] was 1 µg/mL, the “Inhibition of binding (%)” value [4] was 0% and the “Inhibition of binding (%)” value [8] was 0%. The “Inhibition of binding (%)” value [9] was 0%.

B5: 4N10 (antibody, V domains shown)
VH: QVQLVQSGAEVKKPGSSVRVSCKASGGTFSSYVIIWVRQAPGQGLEWMGGVIPIFDTVNYAQKFQGRVTITADESTSTAYMELSSLKSEDTAVYYCARGILAYCGGDCYNTPYGMDVWGQGTTVTVSS
VL: DIQMTQSPSILSASVGDRVTITCRASQSISSWLAWYQQKPGKAPKLLIYKASSLEIGVPSRISGSGSGTEFTLTISSLQPDDFATYYCQQYNSSWTFGQGTKVEIK
notes: human IgG; also called 4N10-biotin
In the case of B5, the “50% neutralization VR1814, ARPE” value [1] is reported as < 0.001 µg/mL, the “50% neutralization VR1814, MRC-9” value [1] is reported as ≤ 2 µg/mL and the “90% neutralization VR1814, ARPE” value [2] is reported as 0.02 µg/mL. The “90% neutralization VR1814, MRC-9” value [2] was > 10 µg/mL, the “Inhibition of binding (%)” value [3] was 0% and the “Inhibition of binding (%)” value [12] was 100%. For the same binder, the “Inhibition of binding (%)” value [4] was 0%, the “Inhibition of binding (%)” value [13] was 0% and the “Inhibition of binding (%)” value [5] was 0%. For the same binder, the “Inhibition of binding (%)” value [6] was 0%, the “Inhibition of binding (%)” value [7] was 0% and the “Inhibition of binding (%)” value [14] was 100%. The “Inhibition of binding (%)” value [8] was 0% and the “Inhibition of binding (%)” value [9] was 90%.

B6: 13H11 (antibody, V domains shown)
VH: QVQLVQSGAEVKKPGASVKVSCKASGYTFTNYYIHWVRQAPGQGLEWMGIIHPSSGGTSYAQKFQGRVTMTRDTSTSTVSMDLSSLRSEDTAVYYCGRAFRILGLSDVFVNDWGQGTVVTVSS
VL: DIQMTQSPSSLSASVGDRVTITCRASQGINNYLAWYQQKPGKVPKLLIYAASTLQSGVPSRFSGSGSGTAFTLTILSLQPEDVATYYCQKYNSAPFTFGPGTKVDIK
For B6, the “50% neutralization VR1814, ARPE” value [10] was < 0.01 µg/mL, the “50% neutralization VR1814, MRC-9” value [10] was ≤ 2 µg/mL and the “90% neutralization VR1814, ARPE” value [11] was 0.4 µg/mL. The “90% neutralization VR1814, MRC-9” value [11] was 1.12 µg/mL.

B7: 7B13 (antibody, V domains shown)
VH: QVQLVESGGGVVQPGGSLRLSCAASGFSFSNYGMHWVRQAPGKGLEWVALIPSDGNYQYYTDSVKGRFTVSRDNSRNTLYLQMKSLRAEDTARYHCAHLGGGLFDFWGQGTLVTVSS
VL: QSALNQPRSVSGSPGQSVSISCTGSSSDVGGYEFVSWYQHHPGKAPKLIIYDVDKRPSGVPDRFSGSRSGDTASLTISGLQAEDEADYYCYSSADTWVFGGGTKLTVL
notes: human IgG
In the case of B7, the “50% neutralization VR1814, ARPE” value [15] is reported as < 0.001 µg/mL, the “50% neutralization VR1814, MRC-9” value [15] is reported as > 2 µg/mL and the “90% neutralization VR1814, ARPE” value [16] is reported as 0.003 µg/mL. The “90% neutralization VR1814, MRC-9” value [16] was > 10 µg/mL, the “Inhibition of binding (%)” value [4] was 100% and the “Inhibition of binding (%)” value [17] was 100%. The “Inhibition of binding (%)” value [8] was 100%, the “Inhibition of binding (%)” value [18] was 100% and the “Inhibition of binding (%)” value [9] was 0%. The “Inhibition of binding (%)” value [19] was 100%.

B8: 8L13 (antibody, V domains shown)
VH: QVQLLESGGGVVQPGRSLRLSCAASGFTFSNYGMHWVRQAPGKGLEWVAVIWNDGSKKYYAESVKGRFTISRDNSKNTVYLQMNSLRAEDTAVYYCARDEGVQMVFAMPDYGMDVWGQGTTVTVSS
VL: SYELTQPPSVSVSPGQTASITCSGDKLGDKFACWYQQRPGQSPILVIYQDSKRPSGIPERFSGSNSGNTATLTIRGTQAMDEADYYCQAWDSSTAHYVFGTGTKVTVL
notes: human IgG
B8 was tested, and the “50% neutralization VR1814, ARPE” value [1] was < 0.01 µg/mL, the “50% neutralization VR1814, MRC-9” value [1] was > 2 µg/mL and the “90% neutralization VR1814, ARPE” value [2] was 0.001 µg/mL. For the same binder, the “90% neutralization VR1814, MRC-9” value [2] was > 10 µg/mL, the “Inhibition of binding (%)” value [13] was 100% and the “Inhibition of binding (%)” value [6] was 100%.
